# Reference: paper PMC2190859
# Biological target: collagen
# Assay: cell adhesion assay
substance,measurement,value
"very late antigen 4 (VLA-4, alpha4 beta1 integrin) (from UniProt P13612;P05556) (receptor)",percent of cells binding,< 5%
